Measured values published in patent US20260297187 (published 2026).

B1: h4D10.G4.H4(N56Q Y100F)L2(S28F S51M) (antibody, V domains shown)
VH: QVQLVQSGAEVKKPGASVKVSCKASGYTFSSYVIHWVRQAPGQGLEWMGYFNPYNQGTNYNENFKGRVTMTADTSTSTVYMELSSLRSEDTAVYYCARYFYASGSLYFDYWGQGTTVTVSS
VL: DIQMTQSPSTLSASVGDRVTITCSASSFVSYMHWYQQKPGKAPKPLIYEIMKLASGVPSRFSGSGSGTEFTLTISSLQPDDAATYYCQQWNYPLITFGGGTKVEIK
B2: h4D10.G4.H4(N56Q Y100F)L2(S28F K52R) (antibody, V domains shown)
VH: QVQLVQSGAEVKKPGASVKVSCKASGYTFSSYVIHWVRQAPGQGLEWMGYFNPYNQGTNYNENFKGRVTMTADTSTSTVYMELSSLRSEDTAVYYCARYFYASGSLYFDYWGQGTTVTVSS
VL: DIQMTQSPSTLSASVGDRVTITCSASSFVSYMHWYQQKPGKAPKPLIYEISRLASGVPSRFSGSGSGTEFTLTISSLQPDDAATYYCQQWNYPLITFGGGTKVEIK
B3: h4D10.G4.H4(N56Q Y100F)L2(S28H) (antibody, V domains shown)
VH: QVQLVQSGAEVKKPGASVKVSCKASGYTFSSYVIHWVRQAPGQGLEWMGYFNPYNQGTNYNENFKGRVTMTADTSTSTVYMELSSLRSEDTAVYYCARYFYASGSLYFDYWGQGTTVTVSS
VL: DIQMTQSPSTLSASVGDRVTITCSASSHVSYMHWYQQKPGKAPKPLIYEISKLASGVPSRFSGSGSGTEFTLTISSLQPDDAATYYCQQWNYPLITFGGGTKVEIK
B4: h4D10.G4.H4(N56Q Y100F)L2(S28F S51M K52R) (antibody, V domains shown)
VH: QVQLVQSGAEVKKPGASVKVSCKASGYTFSSYVIHWVRQAPGQGLEWMGYFNPYNQGTNYNENFKGRVTMTADTSTSTVYMELSSLRSEDTAVYYCARYFYASGSLYFDYWGQGTTVTVSS
VL: DIQMTQSPSTLSASVGDRVTITCSASSFVSYMHWYQQKPGKAPKPLIYEIMRLASGVPSRFSGSGSGTEFTLTISSLQPDDAATYYCQQWNYPLITFGGGTKVEIK
B5: h4D10.G4.H4(N56Q Y100F)L2(K52R) (antibody, V domains shown)
VH: QVQLVQSGAEVKKPGASVKVSCKASGYTFSSYVIHWVRQAPGQGLEWMGYFNPYNQGTNYNENFKGRVTMTADTSTSTVYMELSSLRSEDTAVYYCARYFYASGSLYFDYWGQGTTVTVSS
VL: DIQMTQSPSTLSASVGDRVTITCSASSSVSYMHWYQQKPGKAPKPLIYEISRLASGVPSRFSGSGSGTEFTLTISSLQPDDAATYYCQQWNYPLITFGGGTKVEIK
B6: h4D10.G4.H4(N56Q Y100F)L2(S51M) (antibody, V domains shown)
VH: QVQLVQSGAEVKKPGASVKVSCKASGYTFSSYVIHWVRQAPGQGLEWMGYFNPYNQGTNYNENFKGRVTMTADTSTSTVYMELSSLRSEDTAVYYCARYFYASGSLYFDYWGQGTTVTVSS
VL: DIQMTQSPSTLSASVGDRVTITCSASSSVSYMHWYQQKPGKAPKPLIYEIMKLASGVPSRFSGSGSGTEFTLTISSLQPDDAATYYCQQWNYPLITFGGGTKVEIK
B7: h4D10.G4.H4(H35M N56Q Y100F)L2 (antibody, V domains shown)
VH: QVQLVQSGAEVKKPGASVKVSCKASGYTFSSYVIMWVRQAPGQGLEWMGYFNPYNQGTNYNENFKGRVTMTADTSTSTVYMELSSLRSEDTAVYYCARYFYASGSLYFDYWGQGTTVTVSS
VL: DIQMTQSPSTLSASVGDRVTITCSASSSVSYMHWYQQKPGKAPKPLIYEISKLASGVPSRFSGSGSGTEFTLTISSLQPDDAATYYCQQWNYPLITFGGGTKVEIK
B8: h4D10.G4.H4(N56Q Y100F)L2(S28F) (antibody, V domains shown)
VH: QVQLVQSGAEVKKPGASVKVSCKASGYTFSSYVIHWVRQAPGQGLEWMGYFNPYNQGTNYNENFKGRVTMTADTSTSTVYMELSSLRSEDTAVYYCARYFYASGSLYFDYWGQGTTVTVSS
VL: DIQMTQSPSTLSASVGDRVTITCSASSFVSYMHWYQQKPGKAPKPLIYEISKLASGVPSRFSGSGSGTEFTLTISSLQPDDAATYYCQQWNYPLITFGGGTKVEIK
B9: 4D10.G4 (antibody, V domains shown)
VH: EVQLQQSGPELVKPGASVKMSCKASGYTFSSYVIHWVRQKPGQGLEWIGYFNPYNNGTNYNENFKGKATLTSGKSSSTAYMELSSLTSEDSAVYYCARYYYASGSLYFDYWGQGTTLTVSS
VL: EIVLTQSPAIATASLGQKVTITCSASSSVSYMHWYQQKSGTSPKPWIYEISKLASGVPTRFSGSGSGTSYSLTISSMEAEDAAIYYCQQWNYPLITFGAGTKLELK

Target: T1, CEACAM1-his (human)
T1 chain: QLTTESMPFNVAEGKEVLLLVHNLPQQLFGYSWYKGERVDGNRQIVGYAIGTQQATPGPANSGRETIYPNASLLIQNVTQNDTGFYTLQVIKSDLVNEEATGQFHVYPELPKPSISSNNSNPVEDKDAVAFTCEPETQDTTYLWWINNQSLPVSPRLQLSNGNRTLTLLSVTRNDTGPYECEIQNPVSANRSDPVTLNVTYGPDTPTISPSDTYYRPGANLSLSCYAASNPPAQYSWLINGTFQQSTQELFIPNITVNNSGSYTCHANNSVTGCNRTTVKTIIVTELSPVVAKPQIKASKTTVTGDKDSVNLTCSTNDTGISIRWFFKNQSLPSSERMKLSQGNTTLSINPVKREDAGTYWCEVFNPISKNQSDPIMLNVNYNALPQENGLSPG
Assay: BLI
B1 was tested, and the Kd was 0.362 nM. Binder B2 has a Kd of 0.268 nM. With B3 the Kd was 0.956 nM. B4 was tested, and the Kd was 0.151 nM. In the case of B5, the Kd is reported as 0.801 nM. With B6 the Kd was 0.784 nM. Binder B7 has a Kd of 0.394 nM. In the case of B8, the Kd is reported as 0.3 nM.

Target: T1, CEACAM1-his
Assay: BLI
Remark: another data set of the same source
With B9 the Kd was 1.89 nM.

Target: T1, CEACAM1-his
Assay: BLI
Remark: another data set of the same source
With B9 the Kd was 1.82 nM.
